Data reported in paper PMC5333631 (Scientific Reports, 2017).

Biological target: 6xHis-TrxA-BoNT/A2-HC (UniProt Q45894 871-1296)
Experiment: pull-down
Conditions: both partners purified

Sequence of 6xHis-TrxA-BoNT/A2-HC (Q45894 871-1296): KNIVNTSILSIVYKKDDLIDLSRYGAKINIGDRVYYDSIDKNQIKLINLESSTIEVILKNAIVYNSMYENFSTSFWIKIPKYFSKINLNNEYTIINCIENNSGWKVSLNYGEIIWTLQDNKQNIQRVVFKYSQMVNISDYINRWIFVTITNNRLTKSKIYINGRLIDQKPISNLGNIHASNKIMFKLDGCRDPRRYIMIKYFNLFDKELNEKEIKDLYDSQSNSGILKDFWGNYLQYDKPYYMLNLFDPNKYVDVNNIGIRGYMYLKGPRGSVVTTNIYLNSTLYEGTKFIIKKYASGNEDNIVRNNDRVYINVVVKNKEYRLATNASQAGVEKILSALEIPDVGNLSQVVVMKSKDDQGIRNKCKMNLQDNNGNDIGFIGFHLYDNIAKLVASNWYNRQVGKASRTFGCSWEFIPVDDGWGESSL

B1: luminal domain (LD) of human SV2C (domain or fragment, UniProt Q496J9 456-574, looked up)
chain: DVIKPLQSDEYALLTRNVERDKYANFTINFTMENQIHTGMEYDNGRFIGVKFKSVTFKDSVFKSCTFEDVTSVNTYFKNCTFIDTVFDNTDFEPYKFIDSEFKNCSFFHNKTGCQITFD
notes: also called SV2C-LD; untagged SV2C-LD; not shown: 6xHis, N-terminal, cleaved
Question: Does B1 bind?
Answer: binds
